Data reported in PMC10786891, “Massively parallel profiling of RNA-targeting CRISPR-Cas13d”.
Where a chain is given by its changes, count along the chain named. Names may count otherwise.

Biological target: T1, EsCas13d, nuclease-dead (Eubacterium siraeum, UniProt B0MS50, R295A;H300A;R849A;H854A)
T1 sequence: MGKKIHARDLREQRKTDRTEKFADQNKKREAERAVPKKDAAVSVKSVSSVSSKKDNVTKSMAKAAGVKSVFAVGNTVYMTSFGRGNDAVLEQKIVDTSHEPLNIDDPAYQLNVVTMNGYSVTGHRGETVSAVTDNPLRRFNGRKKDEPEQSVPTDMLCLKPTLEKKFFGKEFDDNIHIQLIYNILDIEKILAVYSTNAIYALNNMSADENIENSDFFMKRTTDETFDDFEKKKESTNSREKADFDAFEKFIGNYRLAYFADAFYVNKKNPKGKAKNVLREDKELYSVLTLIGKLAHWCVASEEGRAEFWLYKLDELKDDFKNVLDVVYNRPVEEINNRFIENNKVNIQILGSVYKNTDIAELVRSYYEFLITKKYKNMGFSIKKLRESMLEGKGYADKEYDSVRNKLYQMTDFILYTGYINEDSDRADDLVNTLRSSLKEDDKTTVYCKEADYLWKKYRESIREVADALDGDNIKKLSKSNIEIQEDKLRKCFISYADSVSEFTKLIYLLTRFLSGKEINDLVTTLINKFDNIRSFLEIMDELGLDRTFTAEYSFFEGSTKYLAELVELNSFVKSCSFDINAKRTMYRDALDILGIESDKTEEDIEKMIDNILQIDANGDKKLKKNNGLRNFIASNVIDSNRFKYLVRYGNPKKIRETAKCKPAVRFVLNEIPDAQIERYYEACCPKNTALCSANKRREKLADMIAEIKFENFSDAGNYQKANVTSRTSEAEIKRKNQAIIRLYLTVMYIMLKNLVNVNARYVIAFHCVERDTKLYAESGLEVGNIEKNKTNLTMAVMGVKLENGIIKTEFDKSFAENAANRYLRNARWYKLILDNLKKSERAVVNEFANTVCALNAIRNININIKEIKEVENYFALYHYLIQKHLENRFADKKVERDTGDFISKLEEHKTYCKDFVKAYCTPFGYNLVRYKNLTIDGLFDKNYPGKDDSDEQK
Assay: crRNA (strand 1, pre-loaded); Mg2+; 40 mM Tris-HCl pH 7.5, 150 mM NaCl, 6 mM MgCl2, 1 mM DTT, 0.1% Tween-20, 0.2 mg/ml BSA; 25 C; 10 min per concentration, then washed
Conditions: tags: His6-TwinStrep-SUMO cleaved; N-terminal SNAP kept (SNAP-Surface 488); label: 3' end held by stalled T7 RNA polymerase

B1: target 1 MT 5'PFS ACA 3'PFS AAA (mixed)
RNA 1: CACCCGUGCAAAAAUGCAGGGGUCUAAAACUGAGCGGAUAACCUCUCUAUGG
RNA 2: GGGAAUGGAUCCACAUCUACGAAUUCACACCAUAGAGAGGUUAUCCGCUCAAAAAGAUCGGAAGAGCACACGU
Kd: ~49 nM

B2: target 1 MT 5'PFS GGG 3'PFS AGG (mixed)
RNA 1: B1 RNA 1
RNA 2: B1 RNA 2 with A27G, C28G, A29G, A53G, A54G
Kd: 50.5 ± 8.5 nM

B3: target 1 MT 5'PFS UAG 3'PFS UGA (mixed)
RNA 1: B1 RNA 1
RNA 2: B1 RNA 2 with A27U, C28A, A29G, A52U, A53G
Kd: 34.5 ± 8 nM

B4: target 1 MT 5'PFS GCC 3'PFS UCG (mixed)
RNA 1: B1 RNA 1
RNA 2: B1 RNA 2 with A27G, A29C, A52U, A53C, A54G
Kd: 15.3 ± 3 nM

B5: target 1 MT 5'PFS GGG 3'PFS AGC (mixed)
RNA 1: B1 RNA 1
RNA 2: B1 RNA 2 with A27G, C28G, A29G, A53G, A54C
Kd: 20.5 ± 4.5 nM

B6: target 1 MT 5'PFS AUU 3'PFS AAG (mixed)
RNA 1: B1 RNA 1
RNA 2: B1 RNA 2 with C28U, A29U, A54G
Kd: 95 ± 40 nM

B7: target 1 G12A,A20C (mixed)
RNA 1: B1 RNA 1
RNA 2: B1 RNA 2 with A27G, C28U, A32C, G40A, A52C, A53C, A54G
Kd: 42 ± 9 nM

B8: target 1 MT 5'PFS GCC 3'PFS UCU (mixed)
RNA 1: B1 RNA 1
RNA 2: B1 RNA 2 with A27G, A29C, A52U, A53C, A54U
Kd: 12.2 ± 2.85 nM

B9: target 1 MT 5'PFS UGC 3'PFS UAC (mixed)
RNA 1: B1 RNA 1
RNA 2: B1 RNA 2 with A27U, C28G, A29C, A52U, A54C
Kd: 32 ± 10.5 nM

B10: target 1 MT 5'PFS ACA 3'PFS UAG (mixed)
RNA 1: B1 RNA 1
RNA 2: B1 RNA 2 with A52U, A54G
Kd: 11.2 ± 4.95 nM

B11: target 1 MT 5'PFS AUA 3'PFS UUC (mixed)
RNA 1: B1 RNA 1
RNA 2: B1 RNA 2 with C28U, A52U, A53U, A54C
Kd: 16.5 ± 5.5 nM

B12: target 1 MT 5'PFS GCC 3'PFS UCA (mixed)
RNA 1: B1 RNA 1
RNA 2: B1 RNA 2 with A27G, A29C, A52U, A53C
Kd: 27.5 ± 10 nM

B13: target 1 MT 5'PFS UCC 3'PFS CAU (mixed)
RNA 1: B1 RNA 1
RNA 2: B1 RNA 2 with A27U, A29C, A52C, A54U
Kd: 13 ± 5.5 nM

B14: target 1 U3C,C6U (mixed)
RNA 1: B1 RNA 1
RNA 2: B1 RNA 2 with A27G, C28U, C46U, U49C, A52C, A53C, A54G
Kd: 14.4 ± 1.9 nM

B15: target 1 MT 5'PFS UGU 3'PFS ACU (mixed)
RNA 1: B1 RNA 1
RNA 2: B1 RNA 2 with A27U, C28G, A29U, A53C, A54U
Kd: 34.5 ± 13.5 nM

B16: target 1 MT 5'PFS CAC 3'PFS AAG (mixed)
RNA 1: B1 RNA 1
RNA 2: B1 RNA 2 with A27C, C28A, A29C, A54G
Kd: 42 ± 17 nM

B17: target 1 MT 5'PFS GGA 3'PFS UUG (mixed)
RNA 1: B1 RNA 1
RNA 2: B1 RNA 2 with A27G, C28G, A52U, A53U, A54G
Kd: 8.9 ± 0.8 nM

B18: target 1 MT 5'PFS UGU 3'PFS ACG (mixed)
RNA 1: B1 RNA 1
RNA 2: B1 RNA 2 with A27U, C28G, A29U, A53C, A54G
Kd: ~80 nM

B19: target 1 MT 5'PFS CAC 3'PFS AAC (mixed)
RNA 1: B1 RNA 1
RNA 2: B1 RNA 2 with A27C, C28A, A29C, A54C
Kd: ~34.5 nM

B20: target 1 MT 5'PFS AGA 3'PFS AGA (mixed)
RNA 1: B1 RNA 1
RNA 2: B1 RNA 2 with C28G, A53G
Kd: 70.5 ± 31.5 nM

B21: target 1 MT 5'PFS AGA 3'PFS AGU (mixed)
RNA 1: B1 RNA 1
RNA 2: B1 RNA 2 with C28G, A53G, A54U
Kd: 44.5 ± 18 nM

B22: target 1 MT 5'PFS UCC 3'PFS CAA (mixed)
RNA 1: B1 RNA 1
RNA 2: B1 RNA 2 with A27U, A29C, A52C
Kd: ~18 nM

B23: target 1 MT 5'PFS AUA 3'PFS UUG (mixed)
RNA 1: B1 RNA 1
RNA 2: B1 RNA 2 with C28U, A52U, A53U, A54G
Kd: 10.8 ± 2.45 nM

B24: target 1 insG 3' of 10,insU 3' of 4 (mixed)
RNA 1: B1 RNA 1
RNA 2: GGGAAUGGAUCCACAUCUACGAAUUCGUACCAUAGAGAGGUUGAUCCGCUUCACCGAGAUCGGAAGAGCACACGU
Kd: 32 ± 7 nM

B25: target 1 MT 5'PFS GAA 3'PFS AGU (mixed)
RNA 1: B1 RNA 1
RNA 2: B1 RNA 2 with A27G, C28A, A53G, A54U
Kd: 43 ± 11.5 nM

B26: target 1 MT 5'PFS GGG 3'PFS AGU (mixed)
RNA 1: B1 RNA 1
RNA 2: B1 RNA 2 with A27G, C28G, A29G, A53G, A54U
Kd: 30.4 ± 4.65 nM

B27: target 1 MT 5'PFS UCG 3'PFS CUU (mixed)
RNA 1: B1 RNA 1
RNA 2: B1 RNA 2 with A27U, A29G, A52C, A53U, A54U
Kd: 24.5 ± 6.5 nM

B28: target 1 insU 3' of 6,insA 3' of 4 (mixed)
RNA 1: B1 RNA 1
RNA 2: B24 RNA 2 with G43A, A44U, U45C, C47U, U50A
Kd: 7.9 ± 0.6 nM

B29: target 1 MT 5'PFS GGG 3'PFS AGA (mixed)
RNA 1: B1 RNA 1
RNA 2: B1 RNA 2 with A27G, C28G, A29G, A53G
Kd: 23.9 ± 3.1 nM

B30: target 1 MT 5'PFS CUA 3'PFS CUC (mixed)
RNA 1: B1 RNA 1
RNA 2: B1 RNA 2 with A27C, C28U, A52C, A53U, A54C
Kd: 7.15 ± 3.05 nM

B31: target 1 MT 5'PFS ACU 3'PFS CCG (mixed)
RNA 1: B1 RNA 1
RNA 2: B1 RNA 2 with A29U, A52C, A53C, A54G
Kd: ~115 nM

B32: target 1 MT 5'PFS AGA 3'PFS AGC (mixed)
RNA 1: B1 RNA 1
RNA 2: B1 RNA 2 with C28G, A53G, A54C
Kd: ~42.5 nM

B33: target 1 MT 5'PFS UGU 3'PFS ACA (mixed)
RNA 1: B1 RNA 1
RNA 2: B1 RNA 2 with A27U, C28G, A29U, A53C
Kd: 71 ± 18 nM

B34: target 1 MT 5'PFS GGC 3'PFS ACU (mixed)
RNA 1: B1 RNA 1
RNA 2: B1 RNA 2 with A27G, C28G, A29C, A53C, A54U
Kd: 14.4 ± 1.55 nM

B35: target 1 MT 5'PFS UCC 3'PFS CAG (mixed)
RNA 1: B1 RNA 1
RNA 2: B1 RNA 2 with A27U, A29C, A52C, A54G
Kd: ~60 nM

B36: target 1 MT 5'PFS GGA 3'PFS UUC (mixed)
RNA 1: B1 RNA 1
RNA 2: B1 RNA 2 with A27G, C28G, A52U, A53U, A54C
Kd: 13.3 ± 2.5 nM

B37: target 1 MT 5'PFS CUU 3'PFS CGC (mixed)
RNA 1: B1 RNA 1
RNA 2: B1 RNA 2 with A27C, C28U, A29U, A52C, A53G, A54C
Kd: 18 ± 6 nM

B38: target 1 MT 5'PFS GGA 3'PFS UUA (mixed)
RNA 1: B1 RNA 1
RNA 2: B1 RNA 2 with A27G, C28G, A52U, A53U
Kd: 14.2 ± 3.1 nM

B39: target 1 MT 5'PFS GCC 3'PFS UCC (mixed)
RNA 1: B1 RNA 1
RNA 2: B1 RNA 2 with A27G, A29C, A52U, A53C, A54C
Kd: 12.6 ± 4.75 nM

B40: target 1 MT 5'PFS GGA 3'PFS UUU (mixed)
RNA 1: B1 RNA 1
RNA 2: B1 RNA 2 with A27G, C28G, A52U, A53U, A54U
Kd: 13.4 ± 4.15 nM
